{"source": "paper doi:10.1101/2025.01.05.631353", "about": "(bioRxiv, 2025)", "key": {"β-arrestin2 R394A": {"target": "β-arrestin2 R394A (UniProt P29067 1-410, R394A)", "sequence (P29067 whole entry R394A)": "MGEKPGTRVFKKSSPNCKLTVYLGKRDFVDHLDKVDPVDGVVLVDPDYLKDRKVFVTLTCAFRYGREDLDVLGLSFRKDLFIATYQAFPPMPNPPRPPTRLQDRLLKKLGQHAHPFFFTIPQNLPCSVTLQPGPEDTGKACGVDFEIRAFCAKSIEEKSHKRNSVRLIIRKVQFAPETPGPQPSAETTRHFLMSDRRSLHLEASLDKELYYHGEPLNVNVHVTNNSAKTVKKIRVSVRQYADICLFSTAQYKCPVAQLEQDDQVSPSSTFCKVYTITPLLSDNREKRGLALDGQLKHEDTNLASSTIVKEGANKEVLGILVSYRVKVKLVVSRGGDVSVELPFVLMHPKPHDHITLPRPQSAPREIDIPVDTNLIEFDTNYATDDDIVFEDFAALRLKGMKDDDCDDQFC", "experiment": "ITC"}, "β-arrestin2 R166A": {"target": "β-arrestin2 R166A (UniProt P29067 1-410, R166A)", "sequence (P29067 whole entry R166A)": "as the sequence (P29067 whole entry R394A) above, with R166A, A394R counted along it", "experiment": "ITC"}}, "note": "Square brackets hold non-standard residues; d marks the D form. Ends that are not written are not given here. pT = C[C@@H](OP(=O)(O)O)[C@H](N)C(=O)O; pS = N[C@@H](COP(=O)(O)O)C(=O)O", "data": [{"binder": "ASRV[pS]E[pT]EY[pS]ALEQ", "note": "[C7pp2, phosphopeptide derived from the carboxyl terminus of CXCR7 (residues 346-359)]", "values": [{"measurement": "Kd", "setting": "β-arrestin2 R394A", "value": 1.1, "unit": "µM"}, {"measurement": "Kd", "setting": "β-arrestin2 R166A", "value": 16.4, "unit": "µM"}]}]}
